Laboratory results as given in US20210371467A1.

Columns and labels:
[1] = molecular target: Npu^C-CFN (Nostoc puminciforme PCC73102 (Npu)); assay: cell-based or functional assay
[2] = molecular target: Ssp^C A136S-CFN (Synechocystis Species PCC6803 (Ssp)); assay: cell-based or functional assay

Chain of Npu^C-CFN (Nostoc puminciforme PCC73102 (Npu)) (chain, as listed by the source): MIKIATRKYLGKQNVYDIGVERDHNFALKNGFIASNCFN

In the case of “Npu^N (AEY-Npu^N, product of plasmid 2 after cleavage of the His6-SUMO tag)”, the protein trans-splicing half-life (t1/2) at 30° C., in vitro PTS assay [1] is reported as 50 s and the rate of branch resolution [2] is reported as 2 fold.
